One block for each molecule: values may come before it.
Columns and labels:
human PCNA = conditions: human PCNA–p12 PIP peptide interaction; ref [25]; read-out: dissociation constant (K D); cited from earlier work
Experimental: To examine the interaction between the Ct PolD4 PIP motif and Ct PCNA in greater detail and in the absence of GST, isothermal titration calorimetry (ITC) was used to determine the binding affinity of PCNA for a 15 amino acid synthetic PolD4 PIP peptide (sequence: ^21KHQSTLNFKHRVTKP^35) and the stoichiometry of the interaction (Fig. 4C). The dissociation constant (K D) was determined to be 22 ± 0.6 μM at 25 °C, broadly similar to that reported for the human PCNA–p12 PIP peptide interaction (38 ± 4 μM). The stoichiometry was determined to be 1 : 1 (i.e. 1 peptide : 1 PCNA protomer) indica ... || Three amino acids are key to interactions between Ct PolD4 and Ct PCNA: Gln23, Leu26 and Phe28. All three are strictly conserved in PolD4 proteins from fungal species closely related to C. thermophilum (Fig. 3). The sidechain of Gln23 inserts into the Q‐pocket on PCNA while the sidechains of Leu26 and Phe28 insert into the hydrophobic pocket located under the interdomain connector loop (IDCL) on the surface of PCNA (Figs 5 and 6A, upper left panel). The human p12 protein lacks the glutamine, equivalent to Gln23, that marks the start of the canonical PIP motif (Qxxψxxθθ), instead having a lysin ...

[1] = molecular target: Chaetomium thermophilum PCNA (proliferating cell nuclear antigen) (Chaetomium thermophilum); assay: crystal structure; apo Ct PCNA; 0.1 M PTCP buffer pH 5.0, 25% PEG 1500; 2.34 Å, space group H3, a single chain in the asymmetric unit
[2] = molecular target: Chaetomium thermophilum PCNA (proliferating cell nuclear antigen) (Chaetomium thermophilum); assay: crystal structure; co-crystallisation of Ct PCNA with the peptide; 0.2 M calcium acetate, 0.1 M sodium cacodylate pH 6.5, 36% PEG 300; 2.45 Å, space group P1, two trimers in the asymmetric unit
[3] = molecular target: Chaetomium thermophilum PCNA (proliferating cell nuclear antigen) (Chaetomium thermophilum); assay: ITC; Ct PolD4 PIP peptide (400 uM) titrated into Ct PCNA (30 uM) in the cell, 25 °C, 50 mM Tris-HCl, 50 mM NaCl, pH 8.0; single-site binding model; duplicate

Molecule: RKRLITDSYPVV [human p12 PIP peptide, N‐terminal PIP motif peptide of the human Pol δ subunit p12 (PolD4)]
Kd (human PCNA): 38 ± 4 µM

stoichiometry N [1]: 3 protomers
stoichiometry N [2]: 3 protomers
Molecule: Chaetomium thermophilum PCNA (proliferating cell nuclear antigen) (natural protein)

Kd [3]: 22 µM
stoichiometry N (peptide per PCNA protomer) [3]: 1
B1: Ct PolD4 PIP peptide (residues 21-35 of Chaetomium thermophilum PolD4) (peptide)
peptide: KHQSTLNFKHRVTKP

From PMC10087552, “Non‐canonical binding of the Chaetomium thermophilum PolD4 N‐terminal PIP motif to PCNA involves Q‐pocket and compact 2‐fork plug interactions but no 3_10 helix” (The Febs Journal, 2022)
